# Measurements from the emibetuzumab library of Makowski et al. (2022).
# B1: VH:VL chains; a variant is named by its letters at X, in order (parent)
# chain 1: QVQLVQSGAEVKKPGASVKVSCKASGYTFTDYXMHWVRQAPGQGLEWMGXVNPNXXXTTYNQKFEGRVTMTTDTSTSTAYMELRSLRSDDTAVYYCARXNXLDXWGQGTTVTVSS
# chain 2: DIQMTQSPSSLSASVGDRVTITCSVSSSVSSIYLHWYQQKPGKAPKLLIYSTSNLASGVPSRFSGSGSGTDFTLTISSLQPEDFATYYCQVYSGYPLTFGGGTKVEIK
# Variants of: B1
# Test: yeast display scFab, FACS + sequencing
# Method in brief: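 Non-specific binding was called from deep sequencing of sorted yeast cells displaying a heavy-chain CDR mutant scFab library. Cells labelled with anti-Myc and biotinylated ovalbumin (260 μg/mL in PBSB, 3 h, room temperature) or soluble membrane proteins (130 μg/mL, 20 min on ice) were FACS-sorted, collecting the top 25% and bottom 10% of binders from two replicates. A sequence was positive when present in ≥3 of 4 pooled positive samples and absent from all negatives, and negative under the converse rule.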
row,Variant,non-specific binding call
1,DRRKAFSA,binds
2,YRRKDALA,binds
3,FRRKDDWA,binds
4,VRRKDFLA,binds
5,YRRKGAAY,binds
6,YRRKGAGD,binds
7,YRRKGALV,binds
8,YRRKGASV,binds
9,YRRKGDAD,binds
10,YRRKGSGA,binds
11,YRRKGSGY,binds
12,YRRKGSSA,binds
13,YRRKGSSS,binds
14,YRRKGSVD,binds
15,VRRKSSSV,binds
16,FRRRDAAF,binds
17,YRRRDSSA,binds
18,FRRRGAAA,binds
19,ARRRGAAA,binds
20,YRRRGAAA,binds
21,YRRRGAAD,binds
22,VRRRGAAD,binds
23,FRRRGAAD,binds
24,YRRRGAAF,binds
25,YRRRGAAS,binds

row,Variant,non-specific binding call
1,YRRRGAAY,binds
2,YRRRGAGA,binds
3,YRRRGAGD,binds
4,VRRRGAGD,binds
5,YRRRGAGF,binds
6,VRRRGAGV,binds
7,YRRRGAGV,binds
8,YRRRGAGY,binds
9,VRRRGALA,binds
10,YRRRGALA,binds
11,FRRRGALD,binds
12,DRRRGALD,binds
13,VRRRGALD,binds
14,SRRRGALD,binds
15,YRRRGALF,binds
16,YRRRGALS,binds
17,YRRRGALY,binds
18,YRRRGASA,binds
19,YRRRGASD,binds
20,YRRRGASF,binds
21,YRRRGASS,binds
22,YRRRGASV,binds
23,FRRRGAVA,binds
24,YRRRGAVA,binds
25,FRRRGAVD,binds

row,Variant,non-specific binding call
1,YRRRGAVD,binds
2,YRRRGAVF,binds
3,VRRRGAVV,binds
4,YRRRGAVY,binds
5,FRRRGAWA,binds
6,YRRRGAWA,binds
7,YRRRGAWD,binds
8,YRRRGAWF,binds
9,YRRRGAWS,binds
10,YRRRGAWV,binds
11,ARRRGAWY,binds
12,FRRRGAWY,binds
13,SRRRGAWY,binds
14,YRRRGDAA,binds
15,YRRRGDAD,binds
16,YRRRGDGD,binds
17,YRRRGDGV,binds
18,YRRRGDGY,binds
19,YRRRGDLD,binds
20,YRRRGDVD,binds
21,YRRRGDVV,binds
22,YRRRGDVY,binds
23,YRRRGDWA,binds
24,YRRRGDWD,binds
25,FRRRGDWY,binds

row,Variant,non-specific binding call
1,YRRRGDWY,binds
2,YRRRGFAA,binds
3,YRRRGFAV,binds
4,YRRRGFGA,binds
5,YRRRGFGD,binds
6,YRRRGFGS,binds
7,YRRRGFGV,binds
8,YRRRGFGY,binds
9,YRRRGFVA,binds
10,YRRRGFVD,binds
11,YRRRGFVV,binds
12,YRRRGFWY,binds
13,FRRRGSAA,binds
14,SRRRGSAA,binds
15,ARRRGSAA,binds
16,YRRRGSAD,binds
17,FRRRGSAD,binds
18,VRRRGSAF,binds
19,YRRRGSAF,binds
20,YRRRGSAS,binds
21,DRRRGSGA,binds
22,ARRRGSGA,binds
23,YRRRGSGA,binds
24,FRRRGSGD,binds
25,VRRRGSGD,binds

row,Variant,non-specific binding call
1,YRRRGSGF,binds
2,YRRRGSGS,binds
3,YRRRGSGV,binds
4,YRRRGSGY,binds
5,YRRRGSLA,binds
6,YRRRGSLD,binds
7,YRRRGSLF,binds
8,VRRRGSLF,binds
9,YRRRGSLS,binds
10,FRRRGSLV,binds
11,YRRRGSLV,binds
12,FRRRGSLY,binds
13,YRRRGSLY,binds
14,YRRRGSSA,binds
15,FRRRGSSD,binds
16,YRRRGSSD,binds
17,YRRRGSSF,binds
18,YRRRGSSS,binds
19,YRRRGSVA,binds
20,YRRRGSVD,binds
21,YRRRGSVF,binds
22,YRRRGSVS,binds
23,YRRRGSVV,binds
24,YRRRGSWA,binds
25,YRRRGSWD,binds

row,Variant,non-specific binding call
1,YRRRGSWS,binds
2,VRRRGSWV,binds
3,YRRRGSWV,binds
4,YRRRGVAA,binds
5,YRRRGVAD,binds
6,YRRRGVGA,binds
7,YRRRGVGD,binds
8,YRRRGVGS,binds
9,YRRRGVGV,binds
10,YRRRGVGY,binds
11,YRRRGVSA,binds
12,YRRRGVVV,binds
13,YRRRGVWA,binds
14,YRRRGYAA,binds
15,YRRRGYGD,binds
16,YRRRGYLV,binds
17,YRRRGYSD,binds
18,YRRRGYSS,binds
19,YRRRGYVA,binds
20,YRRRGYVD,binds
21,YRRRGYVF,binds
22,YRRRGYVV,binds
23,YRRRGYWA,binds
24,YRRRSAGA,binds
25,YRRRSAVA,binds

row,Variant,non-specific binding call
1,YRRRSSLA,binds
2,VRRRSSLA,binds
3,YRRRSSSS,binds
4,YRRRSSVD,binds
5,YRRRTAAV,binds
6,VRRTDFVA,binds
7,FRRTDFVA,binds
8,FRRTDFVA chain 1 C22Y,binds
9,ARRTDVAD,binds
10,VRRTSAAS,binds
11,VRTAASGD,binds
12,VRTADDGA,no binding
13,YRTADDWV,binds
14,YRTADVGV,binds
15,VRTADVGV,binds
16,FRTADVGV,binds
17,YRTAGAAD,binds
18,YRTAGAGD,binds
19,YRTAGAGV,binds
20,YRTAGSGD,binds
21,YRTAGSGV,binds
22,YRTAGSSD,binds
23,VRTEDALD,no binding
24,VRTEDALV,no binding
25,VRTEDASF,no binding

row,Variant,non-specific binding call
1,VRTEDAWA,no binding
2,VRTEDAWV,no binding
3,VRTEDDAS,no binding
4,VRTEDDLV,no binding
5,VRTEDDVA,no binding
6,VRTEDDVD,no binding
7,VRTEDDVF,no binding
8,VRTEDDVY,no binding
9,VRTEDDWF,no binding
10,VRTEDDWS,no binding
11,VRTEDDWV,no binding
12,VRTEDDWY,no binding
13,VRTEDFGV,no binding
14,VRTEDSGD,no binding
15,VRTEDSLD,no binding
16,VRTEDSLV,no binding
17,VRTEDSSV,no binding
18,VRTEDSWA,no binding
19,VRTEDSWS,no binding
20,YRTEDVGA,binds
21,YRTEGAVA,binds
22,FRTEGSAD,binds
23,FRTEGSGY,binds
24,YRTGAAAD,binds
25,YRTGAAGV,binds

row,Variant,non-specific binding call
1,YRTGAALS,binds
2,YRTGAASD,binds
3,YRTGASSD,binds
4,VRTGAVGD,binds
5,FRTGDAGA,no binding
6,FRTGDAVF,no binding
7,FRTGDAVS,no binding
8,FRTGDAWV,no binding
9,FRTGDDAA,no binding
10,FRTGDDAV,no binding
11,FRTGDDGA,no binding
12,VRTGDDGV,no binding
13,FRTGDDLV,no binding
14,FRTGDDSF,no binding
15,DRTGDDVA,no binding
16,YRTGDDVF,no binding
17,DRTGDDVY,no binding
18,FRTGDDWV,no binding
19,YRTGDSAA,binds
20,FRTGDSAS,no binding
21,VRTGDSAY,no binding
22,YRTGDSGD,no binding
23,VRTGDSLD,no binding
24,FRTGDSLV,no binding
25,YRTGDSSA,no binding

row,Variant,non-specific binding call
1,DRTGDSSS,no binding
2,FRTGDSVD,no binding
3,FRTGDSWD,no binding
4,VRTGGAAA,binds
5,YRTGGAGD,no binding
6,FRTGGAVA,binds
7,YRTGGAWD,binds
8,FRTGGSAD,binds
9,YRTGGSGA,binds
10,YRTGGSGD,binds
11,YRTGGSLD,binds
12,YRTGGSSV,binds
13,FRTGSAWF,binds
14,SRTGSDVD,no binding
15,YRTGTAGF,binds
16,YRTKAAVD,binds
17,FRTKAAVY,binds
18,VRTKADAV,no binding
19,YRTKASLD,binds
20,VRTKAVAY,binds
21,FRTKDDVY chain 1 E46K,binds
22,VRTKDFSY,no binding
23,FRTKGAAD,binds
24,YRTKGAAD,binds
25,YRTKGAVY,binds
